In US20140304847 one finds activity (% targeted mice) data, which are given here for two sequences.

For one data set, the system named is ZFN-Rab38-L (artificial). The data set is described as follows: cell_activity. Particulars: with ZFN-Rab38-R; 3 of 52 mice from mRNA-injected zygotes with Rab38-cht vector, no NHEJ inhibition.
The next data set relates to ZFN-Rab38-R (artificial). The data set is described as follows: cell_activity. To be noted: with ZFN-Rab38-L; 3 of 52 mice from mRNA-injected zygotes with Rab38-cht vector, no NHEJ inhibition.

In the data set with ZFN-Rab38-L (artificial), “ATGCAGACACCTCACAAGGAGCACCTGTACAAGCTGCTGGTGATCGGCGACCTGGGTGTGGGCAAGACCAGCATTATCAAGCGCTATGTGCACCAAAACTTCTCCTCGCACTACCGGGCCACCATTGGTGTGGACTTCGCGCTGAAGGTGCTCCACTGGGACCCAGAGACGGTGGTGCGCTTGCAGCTCTGGGACATTGCTG (double strand) [Rab38 exon 1 ZFN-L half-site]” displayed an activity (% targeted mice) of 5. On to “ATGCAGACACCTCACAAGGAGCACCTGTACAAGCTGCTGGTGATCGGCGACCTGGGTGTGGGCAAGACCAGCATTATCAAGCGCTATGTGCACCAAAACTTCTCCTCGCACTACCGGGCCACCATTGGTGTGGACTTCGCGCTGAAGGTGCTCCACTGGGACCCAGAGACGGTGGTGCGCTTGCAGCTCTGGGACATTGCTG (double strand) [Rab38 exon 1 ZFN-R half-site]”, for which the activity (% targeted mice) in the data set on ZFN-Rab38-R (artificial) stood at 5.
